T1: recombinant human activated Factor VII (FVIIa) (human, UniProt P08709 61-212; P08709 213-466, ten glutamate residues of the Gla domain may be gamma-carboxylated)
T1 construct: chains tethered by a disulfide bond; also called Factor VIIa; rFVIIa
T1 sequence 1: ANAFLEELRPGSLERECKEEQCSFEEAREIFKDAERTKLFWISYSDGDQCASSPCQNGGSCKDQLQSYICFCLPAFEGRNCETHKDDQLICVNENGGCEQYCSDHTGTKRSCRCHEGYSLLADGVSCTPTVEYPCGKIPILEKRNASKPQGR
T1 sequence 2: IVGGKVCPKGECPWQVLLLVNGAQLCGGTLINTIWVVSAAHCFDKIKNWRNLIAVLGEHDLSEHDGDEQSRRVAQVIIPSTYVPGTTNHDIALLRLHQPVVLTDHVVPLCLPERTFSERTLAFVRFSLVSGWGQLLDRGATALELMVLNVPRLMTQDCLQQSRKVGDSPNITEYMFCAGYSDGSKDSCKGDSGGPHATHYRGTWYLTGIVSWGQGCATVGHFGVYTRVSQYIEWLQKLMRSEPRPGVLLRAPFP


Molecular target: T1, recombinant human activated Factor VII …
Assay: BLI (Fortebio)
Experimental: All steps were performed in running buffer (20 mM HEPES buffer (pH 7.4), 150 mM NaCl, 5 mM CaCl2, 0.03% Tween 20, 1 mg/ml IgG-free BSA) at […] Antibodies were captured on anti-human tips (AHC, Fortebio) for 3 min at a concentration of 10 ug/ml. This was followed by a 3 min incubation to establish a baseline. Following this, association was monitored for 3 min using four different concentrations of VIIa (25 nm, 50 nM, 100 nM, and 200 nM), followed by a 3 mi dissociation. Sensorgrams were analysed using Fortebio data analysis software.

Binder | Kd [nM]
VH SEQ ID NO 522 / VL SEQ ID NO 446 (antibody, IgG4, V domains shown, humanized 11F2; IgG4 S228P/kappa) VH: QVQLQESGPGLVEPSQTLSLTCTVSGYSISSDSAWSWIRQPPGKGLEWIGYIQYSGSTNYNPSLKSRVTISRDTSKNQFSLKLSSVTAADTAVYYCARSVNYYGNSFAVGPWGQGTLVTVSS VL: EIVLTQSPATLSLSPGERATLSCRASQGVSDYLAWYQQKPGQAPRLLIKYTSQPATGIPARFSGSGSGTDFTLTISSLEPEDFAVYYCQNGHSFPLTFGQGTKLEIK | 170
VH SEQ ID NO 522 / VL SEQ ID NO 486 (antibody, IgG4, V domains shown, humanized 11F2; IgG4 S228P/kappa) VH: QVQLQESGPGLVEPSQTLSLTCTVSGYSISSDSAWSWIRQPPGKGLEWIGYIQYSGSTNYNPSLKSRVTISRDTSKNQFSLKLSSVTAADTAVYYCARSVNYYGNSFAVGPWGQGTLVTVSS VL: EIVLTQSPATLSLSPGERATLSCRASQGVSDYLHWYQQKPGQAPRLLIKYASQPATGIPARFSGSGSGTDFTLTISSLEPEDFGVYYCQNGHSFPLTFGQGTKLEIK | 1.5
VH SEQ ID NO 530 / VL SEQ ID NO 374 (antibody, IgG4, V domains shown, humanized 11F2; IgG4 S228P/kappa) VH: QVQLQESGPGLVEPSQTLSLTCTVSGYSISSDSAWSWIRQPPGKGLEWIGYIQYSGSTNYNPSLKSRVTISRDTSKNQFSLKLSSVTAADTAVYYCARSVNYYGNSFAVGYWGQGTLVTVSS VL: EIVLTQSPATLSLSPGERATLSCRASQGLSDYLAWYQQKPGQAPRLLIKYTSQPATGIPARFSGSGSGTDFTLTISSLEPEDFAVYYCQNGHSFPLTFGQGTKLEIK | 4.2
VH SEQ ID NO 522 / VL SEQ ID NO 478 (antibody, IgG4, V domains shown, humanized 11F2; IgG4 S228P/kappa) VH: QVQLQESGPGLVEPSQTLSLTCTVSGYSISSDSAWSWIRQPPGKGLEWIGYIQYSGSTNYNPSLKSRVTISRDTSKNQFSLKLSSVTAADTAVYYCARSVNYYGNSFAVGPWGQGTLVTVSS VL: EIVLTQSPATLSLSPGERATLSCRASQGVSDYLHWYQQKPGQAPRLLIKYASQPATGIPARFSGSGSGTDFTLTISSLEPEDFAVYYCQQGHSFPLTFGQGTKLEIK | 1.6
VH SEQ ID NO 522 / VL SEQ ID NO 502 (antibody, IgG4, V domains shown, humanized 11F2; IgG4 S228P/kappa) VH: QVQLQESGPGLVEPSQTLSLTCTVSGYSISSDSAWSWIRQPPGKGLEWIGYIQYSGSTNYNPSLKSRVTISRDTSKNQFSLKLSSVTAADTAVYYCARSVNYYGNSFAVGPWGQGTLVTVSS VL: EIVLTQSPATLSLSPGERATLSCRASQGVSDYLHWYQQKPGQAPRLLIKYTSQPATGIPARFSGSGSGTDFTLTISSLEPEDFAVYYCQNGHSFPLTFGQGTKLEIK | 1.4
VH SEQ ID NO 522 / VL SEQ ID NO 494 (antibody, IgG4, V domains shown, humanized 11F2; IgG4 S228P/kappa) VH: QVQLQESGPGLVEPSQTLSLTCTVSGYSISSDSAWSWIRQPPGKGLEWIGYIQYSGSTNYNPSLKSRVTISRDTSKNQFSLKLSSVTAADTAVYYCARSVNYYGNSFAVGPWGQGTLVTVSS VL: EIVLTQSPATLSLSPGERATLSCRASQGVSDYLHWYQQKPGQAPRLLIKYASQPATGIPARFSGSGSGTDFTLTISSLEPEDVAVYYCQNGHSFPLTFGQGTKLEIK | 1.7
VH SEQ ID NO 530 / VL SEQ ID NO 310 (antibody, IgG4, V domains shown, humanized 11F2; IgG4 S228P/kappa) VH: QVQLQESGPGLVEPSQTLSLTCTVSGYSISSDSAWSWIRQPPGKGLEWIGYIQYSGSTNYNPSLKSRVTISRDTSKNQFSLKLSSVTAADTAVYYCARSVNYYGNSFAVGYWGQGTLVTVSS VL: EIVLTQSPATLSLSPGERATLSCRASQGISDYLAWYQQKPGQAPRLLIKYASQPATGIPARFSGSGSGTDFTLTISSLEPEDFAVYYCQNGHSFPLTFGQGTKLEIK | 2.5
VH SEQ ID NO 530 / VL SEQ ID NO 390 (antibody, IgG4, V domains shown, humanized 11F2; IgG4 S228P/kappa) VH: QVQLQESGPGLVEPSQTLSLTCTVSGYSISSDSAWSWIRQPPGKGLEWIGYIQYSGSTNYNPSLKSRVTISRDTSKNQFSLKLSSVTAADTAVYYCARSVNYYGNSFAVGYWGQGTLVTVSS VL: EIVLTQSPATLSLSPGERATLSCRASQGVSDYLAWYQQKPGEAPRLLIKYASQPATGIPARFSGSGSGTDFTLTISSLEPEDFAVYYCQNGHSFPLTFGQGTKLEIK | 4.1
VH SEQ ID NO 530 / VL SEQ ID NO 342 (antibody, IgG4, V domains shown, humanized 11F2; IgG4 S228P/kappa) VH: QVQLQESGPGLVEPSQTLSLTCTVSGYSISSDSAWSWIRQPPGKGLEWIGYIQYSGSTNYNPSLKSRVTISRDTSKNQFSLKLSSVTAADTAVYYCARSVNYYGNSFAVGYWGQGTLVTVSS VL: EIVLTQSPATLSLSPGERATLSCRASQGISDYLHWYQQKPGQAPRLLIKYTSQPATGIPARFSGSGSGRDFTLTISSLEPEDFAVYYCQNGHSFPLTFGAGTKLELK | 1.2
VH SEQ ID NO 522 / VL SEQ ID NO 462 (antibody, IgG4, V domains shown, humanized 11F2; IgG4 S228P/kappa) VH: QVQLQESGPGLVEPSQTLSLTCTVSGYSISSDSAWSWIRQPPGKGLEWIGYIQYSGSTNYNPSLKSRVTISRDTSKNQFSLKLSSVTAADTAVYYCARSVNYYGNSFAVGPWGQGTLVTVSS VL: EIVLTQSPATLSLSPGERATLSCRASQGVSDYLHWYQQKPGQAPRLLIKYASQPATGIPARFSGSGSGTDFTLTISSLEPEDFAVYYCQNGHSFPLTFGAGTKLEIK | 1.2
VH SEQ ID NO 530 / VL SEQ ID NO 366 (antibody, IgG4, V domains shown, humanized 11F2; IgG4 S228P/kappa) VH: QVQLQESGPGLVEPSQTLSLTCTVSGYSISSDSAWSWIRQPPGKGLEWIGYIQYSGSTNYNPSLKSRVTISRDTSKNQFSLKLSSVTAADTAVYYCARSVNYYGNSFAVGYWGQGTLVTVSS VL: EIVLTQSPATLSLSPGERATLSCRASQGLSDYLAWYQQKPGEAPRLLIKYASQPATGIPARFSGSGSGTDFTLTISSLEPEDFAVYYCQNGHSFPLTFGQGTKLEIK | 3.2

Continued by falling Kd, values first:

Kd [nM] | Binder
1.2 | VH SEQ ID NO 530 / VL SEQ ID NO 318 (antibody, IgG4, V domains shown, humanized 11F2; IgG4 S228P/kappa) VH: QVQLQESGPGLVEPSQTLSLTCTVSGYSISSDSAWSWIRQPPGKGLEWIGYIQYSGSTNYNPSLKSRVTISRDTSKNQFSLKLSSVTAADTAVYYCARSVNYYGNSFAVGYWGQGTLVTVSS VL: EIVLTQSPATLSLSPGERATLSCRASQGISDYLHWYQQKPGEAPRLLIKYTSQPATGIPARFSGSGSGTDFTLTISSLEPEDFAVYYCQNGHSFPLTFGQGTKLEIK
1.2 | VH SEQ ID NO 530 / VL SEQ ID NO 334 (antibody, IgG4, V domains shown, humanized 11F2; IgG4 S228P/kappa) VH: QVQLQESGPGLVEPSQTLSLTCTVSGYSISSDSAWSWIRQPPGKGLEWIGYIQYSGSTNYNPSLKSRVTISRDTSKNQFSLKLSSVTAADTAVYYCARSVNYYGNSFAVGYWGQGTLVTVSS VL: EIVLTQSPATLSLSPGERATLSCRASQGISDYLHWYQQKPGQAPRLLIKYASQPATGIPARFSGSGSGTDFTLTISSLEPEDFAVYYCQNGHSFPLTFGQGTKLEIK
1.1 | VH SEQ ID NO 530 / VL SEQ ID NO 382 (antibody, IgG4, V domains shown, humanized 11F2; IgG4 S228P/kappa) VH: QVQLQESGPGLVEPSQTLSLTCTVSGYSISSDSAWSWIRQPPGKGLEWIGYIQYSGSTNYNPSLKSRVTISRDTSKNQFSLKLSSVTAADTAVYYCARSVNYYGNSFAVGYWGQGTLVTVSS VL: EIVLTQSPATLSLSPGERATLSCRASQGLSDYLHWYQQKPGEAPRLLIKYASQPATGIPARFSGSGSGTDFTLTISSLEPEDFAVYYCQNGHSFPLTFGQGTKLEIK
1.1 | VH SEQ ID NO 530 / VL SEQ ID NO 326 (antibody, IgG4, V domains shown, humanized 11F2; IgG4 S228P/kappa) VH: QVQLQESGPGLVEPSQTLSLTCTVSGYSISSDSAWSWIRQPPGKGLEWIGYIQYSGSTNYNPSLKSRVTISRDTSKNQFSLKLSSVTAADTAVYYCARSVNYYGNSFAVGYWGQGTLVTVSS VL: EIVLTQSPATLSLSPGERATLSCRASQGISDYLHWYQQKPGEAPRLLIKYTSQPATGIPARFSGSGSGTDFTLTISSLEPEDFGVYYCQNGHSFPLTFGAGTKLELK
1 | VH SEQ ID NO 522 / VL SEQ ID NO 454 (antibody, IgG4, V domains shown, humanized 11F2; IgG4 S228P/kappa) VH: QVQLQESGPGLVEPSQTLSLTCTVSGYSISSDSAWSWIRQPPGKGLEWIGYIQYSGSTNYNPSLKSRVTISRDTSKNQFSLKLSSVTAADTAVYYCARSVNYYGNSFAVGPWGQGTLVTVSS VL: EIVLTQSPATLSLSPGERATLSCRASQGVSDYLHWYQQKPGEAPRLLIKYASQPATGIPARFSGSGSGTDFTLTISSLEPEDFAVYYCQNGHSFPLTFGQGTKLEIK
1 | VH SEQ ID NO 530 / VL SEQ ID NO 358 (antibody, IgG4, V domains shown, humanized 11F2; IgG4 S228P/kappa) VH: QVQLQESGPGLVEPSQTLSLTCTVSGYSISSDSAWSWIRQPPGKGLEWIGYIQYSGSTNYNPSLKSRVTISRDTSKNQFSLKLSSVTAADTAVYYCARSVNYYGNSFAVGYWGQGTLVTVSS VL: EIVLTQSPATLSLSPGERATLSCRASQGISDYLHWYQQKPGQAPRLLIKYTSQPATGIPARFSGSGSGTDFTLTISSLEPEDFAVYYCQNGHSFPLTFGQGTKLEIK
0.96 | VH SEQ ID NO 522 / VL SEQ ID NO 470 (antibody, IgG4, V domains shown, humanized 11F2; IgG4 S228P/kappa) VH: QVQLQESGPGLVEPSQTLSLTCTVSGYSISSDSAWSWIRQPPGKGLEWIGYIQYSGSTNYNPSLKSRVTISRDTSKNQFSLKLSSVTAADTAVYYCARSVNYYGNSFAVGPWGQGTLVTVSS VL: EIVLTQSPATLSLSPGERATLSCRASQGVSDYLHWYQQKPGQAPRLLIKYASQPATGIPARFSGSGSGTDFTLTISSLEPEDFAVYYCQNGHSFPLTFGQGTKLEIK
0.96 | VH SEQ ID NO 530 / VL SEQ ID NO 350 (antibody, IgG4, V domains shown, humanized 11F2; IgG4 S228P/kappa) VH: QVQLQESGPGLVEPSQTLSLTCTVSGYSISSDSAWSWIRQPPGKGLEWIGYIQYSGSTNYNPSLKSRVTISRDTSKNQFSLKLSSVTAADTAVYYCARSVNYYGNSFAVGYWGQGTLVTVSS VL: EIVLTQSPATLSLSPGERATLSCRASQGISDYLHWYQQKPGQAPRLLIKYTSQPATGIPARFSGSGSGTDFTLTISSLEPEDFAVYYCQNGHSFPLTFGAGTKLELK
